According to patent US20200405820A1 (GENERAL HOSPITAL, published 2020):

Assays:
[1] = target: T1, parathyroid hormone receptor 1 (PTHR1) in human osteoblast-derived SaOS-2 cells (human, UniProt Q03431 27-593); assay: cell-based or functional assay
T1 sequence (looked up): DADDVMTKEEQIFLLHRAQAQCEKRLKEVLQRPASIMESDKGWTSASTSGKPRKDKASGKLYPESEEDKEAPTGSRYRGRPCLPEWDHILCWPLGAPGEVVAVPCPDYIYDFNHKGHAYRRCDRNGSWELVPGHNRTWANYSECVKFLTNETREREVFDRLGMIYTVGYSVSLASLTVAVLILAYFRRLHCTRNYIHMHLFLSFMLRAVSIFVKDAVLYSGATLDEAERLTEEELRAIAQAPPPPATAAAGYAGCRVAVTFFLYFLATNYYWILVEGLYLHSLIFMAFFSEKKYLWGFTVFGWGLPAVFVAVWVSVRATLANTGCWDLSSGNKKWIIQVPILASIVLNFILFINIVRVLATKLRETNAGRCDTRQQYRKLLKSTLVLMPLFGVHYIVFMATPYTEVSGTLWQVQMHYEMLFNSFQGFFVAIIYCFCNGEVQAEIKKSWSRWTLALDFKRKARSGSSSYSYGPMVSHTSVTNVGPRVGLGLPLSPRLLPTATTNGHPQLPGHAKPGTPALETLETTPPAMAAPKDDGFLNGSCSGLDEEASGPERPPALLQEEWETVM

[2] = target: T1, parathyroid hormone receptor 1 (PTHR1) …; assay: cell-based or functional assay; remark: listed apart in the source

EC50, stimulation of cAMP formation in SaOS-2 cells [1]: ~0.6 nM | Max %, cAMP signaling in SaOS2/glosensor (SGS-72) cells [2]: 85% | pEC50, cAMP signaling potency in SaOS2/glosensor (SGS-72) cells [2]: 9.81 log molar concentration (pEC50)
B1: Palm-PTH(1-34) (Ref. No. 2027) (peptide)
peptide: SVSEIQLMHNLGKHLNSMERVEWLRKKLQDVHNFEYEXEYE
modifications: (PEG)2 linker (-C(O)-CH2(OCH2CH2)2CH2CH2-NH-) between the C-terminal Phe of PTH(1-34) and the N-terminal Glu of the tag; palmitoyl on the side-chain nitrogen of the Lys of the tag EYEK(palm)EYE; C-terminal amide (-NH2)
